From US20030100489A1 (COLD SPRING HARBOR LABORATORY, published 2003)

Columns and labels:
[1] = biological target: CDK2 (human, UniProt P24941 1-298); assay: anti-CDK2 immunoprecipitation from TGF-β arrested human keratinocytes
[2] = biological target: T1, cdc2 (human, UniProt P06493 1-297); assay: anti-CDC2 immunoprecipitation from TGF-β arrested human keratinocytes
T1 construct: Untagged: 35S-labelled in vitro translated, or endogenous in HaCaT human keratinocytes; also called CDK1

[3] = biological target: T2, CDK4 Arg24-Cys mutant (Homo sapiens (Human), UniProt P11802 1-303); assay: immunoprecipitation from mixed Sf9 lysates
T2 construct: Found in cells from a melanoma patient; also called mutant CDK4; Arg→Cys mutant of CDK4

[4] = biological target: T3, GAL4db-CDK2 fusion (UniProt P04386 1-147; P24941 1-298, limits assumed); assay: yeast two-hybrid (HIS3 growth and beta-galactosidase) in YPB2
T3 construct: Two-hybrid construct; also called GALAdb fusion construct containing CDK2
Method: (§1) Transformed cells were plated with and without histidine.
(§2) After growing cells in medium selective for both plasmids (minus tryptophan and minus leucine), two colonies were picked randomly and were streaked in plates that either contained or lacked histidine.

[5] = biological target: T4, GAL4db-PCNA fusion (UniProt P04386 1-147; P12004 1-261, limits assumed); assay: as above
T4 construct: Two-hybrid construct; also called GALAdb fusion construct containing PCNA
Method: as §1, §2

[6] = biological target: T5, GAL4db-CDK5 fusion (UniProt P04386 1-147; Q00535 1-292, limits assumed); assay: as above
T5 construct: Two-hybrid construct; also called GALAdb fusion construct containing CDK5
Method: as §1, §2

[7] = biological target: T6, GAL4db-cdc2 fusion (UniProt P04386 1-147; P06493 1-297, limits assumed); assay: as above
T6 construct: Two-hybrid construct; also called GALAdb fusion construct containing cdc2
Method: as §1, §2

T2 sequence (P11802 whole entry R24C): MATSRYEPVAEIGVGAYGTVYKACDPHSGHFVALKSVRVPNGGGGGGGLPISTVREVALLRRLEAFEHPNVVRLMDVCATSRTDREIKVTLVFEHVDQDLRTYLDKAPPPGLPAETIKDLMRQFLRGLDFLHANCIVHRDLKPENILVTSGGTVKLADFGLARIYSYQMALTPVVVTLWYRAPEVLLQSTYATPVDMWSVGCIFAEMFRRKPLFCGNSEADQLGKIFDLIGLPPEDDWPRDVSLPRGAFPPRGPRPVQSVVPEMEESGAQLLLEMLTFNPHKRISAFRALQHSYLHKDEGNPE
T1 sequence (P06493 whole entry): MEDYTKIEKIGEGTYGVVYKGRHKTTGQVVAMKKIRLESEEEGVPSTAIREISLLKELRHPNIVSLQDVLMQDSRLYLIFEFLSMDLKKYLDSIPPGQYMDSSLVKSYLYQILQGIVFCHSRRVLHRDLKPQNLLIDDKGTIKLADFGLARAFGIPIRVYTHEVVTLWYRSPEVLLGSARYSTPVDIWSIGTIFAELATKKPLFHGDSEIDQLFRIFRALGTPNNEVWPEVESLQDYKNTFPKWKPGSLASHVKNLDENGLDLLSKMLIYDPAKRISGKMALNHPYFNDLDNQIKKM

Row | Binder | binding result [1] | binding result [2] | binding result [3] | binding result [4] | binding result [5] | binding result [6] | binding result [7]
1 | p15 (other, Untagged p15: endogenous in HaCaT human keratinocytes or overexpressed in Sf9 cells (lysate); also called human p15; protein of approx. 15 kDa) MREENKGMPSGGGSDEGLATPARGLVEKVRHSWEAGADPNGVNRFGRRAIQVMMMGSARVAELLLLHGAEPNCADPATLTRPVHDAAREGFLDTLVVLHRAGARLDVRDAWGRLPVDLAEERGHRDVAGYLRTATGD | no binding | no binding | no binding | – | – | – | –
2 | GAL4ad-p16 fusion (other, not shown: large carriers, Two-hybrid construct in yeast YPB2; also called GALAad-p16) MEPAAGSSMEPSADWLATAAARGRVEEVRALLEAGALPNAPNSYGRRPIQVMMMGSARVAELLLLHGAEPNCADPATLTRPVHDAAREGFLDTLVVLHRAGARLDVRDAWGRLPVDLAEELGHRDVARYLRAAAGGTRGSNHARIDAAEGPSDIPD | – | – | – | no binding | no binding | no binding | no binding
3 | p16 (other, also called human p16) MEPAAGSSMEPSADWLATAAARGRVEEVRALLEAGALPNAPNSYGRRPIQVMMMGSARVAELLLLHGAEPNCADPATLTRPVHDAAREGFLDTLVVLHRAGARLDVRDAWGRLPVDLAEELGHRDVARYLRAAAGGTRGSNHARIDAAEGPSDIPD | – | – | no binding | – | – | – | –
